Data on six molecules can be found in patent US20210214454A1 (SYMPHOGEN A S, published 2021).

The term Kd denotes a measure of binding affinity in units of concentration. Low values mean a tighter complex, high ones a looser complex. The koff is a measure of how fast the partners let go of each other. Usually kon stands for a measure of how fast the partners come together. As a reminder, the EC50 (read off the curve) is the concentration giving half of the maximal effect.

Test [1] has as its target T1, cynomolgus CD40 extracellular domain (ECD) (cynomolgus).
T1 construct: extracellular domain; also called Cynomolgus CD40 ECD
The test is described as follows: SPR (IBIS MX96), antibody captured, monovalent CD40 ECD in solution.

Test [2] addresses T2, His-tagged human CD40 extracellular domain (ECD) (human, UniProt P25942 21-193).
T2 construct: Bought from Sino Biological; also called human CD40 ECD; CD40-his ECD antigen; not shown: His tag
The test is described as above.

The target in test [3] is T3, human CD40 protein expressed on cells (human, UniProt P25942 21-277).
T3 construct: also called human CD40 on CHO-S cells; CD40 of CD40-NFkB-luciferase reporter cells (Promega CD40 Bioassay kit)
T3 sequence (P25942 21-277 limits assumed): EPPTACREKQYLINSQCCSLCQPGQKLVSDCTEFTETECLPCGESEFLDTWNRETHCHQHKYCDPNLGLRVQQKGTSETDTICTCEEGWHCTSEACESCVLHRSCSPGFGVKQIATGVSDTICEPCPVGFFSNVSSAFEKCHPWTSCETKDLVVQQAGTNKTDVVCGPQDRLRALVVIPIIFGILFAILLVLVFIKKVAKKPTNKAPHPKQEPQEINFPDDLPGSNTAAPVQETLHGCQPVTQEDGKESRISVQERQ
Kind of test: flow cytometry on CHO-S cells transiently expressing human CD40; AF647 anti-human IgG (H+L) secondary; GeoMean RL1-H. The procedure:
(§1) The anti-CD40 antibodies were incubated with hamster CHO-S cells transiently expressing human or cynomolgus CD40 for 30 minutes at 4° C. The cells were washed twice and subsequently incubated for an additional 20 minutes with AF647-conjugated secondary anti-human IgG (H+L) antibody. After the washing step, antibody binding was detected using the high-throughput flow cytometer iQue Screener PLUS (Sartorius) measuring the GeoMean of AF647 signal in each well. Every concentration was assayed in triplicate and a 12-point titration curve was generated for each antibody.
(A flow cytometer gives signals particle by particle.)

Test [4] has as its target T4, cynomolgus CD40 protein expressed on CHO-S cells (cynomolgus, UniProt G7PG38 21-278).
T4 construct: whole, on cells
Kind of test: flow cytometry on CHO-S cells transiently expressing cynomolgus CD40; AF647 anti-human IgG (H+L) secondary; GeoMean RL1-H. The protocol:
as §1

T2 sequence (P25942 21-193): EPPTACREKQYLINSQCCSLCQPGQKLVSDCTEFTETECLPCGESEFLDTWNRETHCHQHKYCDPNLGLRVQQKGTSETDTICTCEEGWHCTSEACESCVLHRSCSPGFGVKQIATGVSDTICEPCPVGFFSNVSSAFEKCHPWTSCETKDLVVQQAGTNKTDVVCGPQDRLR

B1: antibody 15833 (antibody, human IgG1, kappa, L234A L235A, V domains shown)
VH: QVQLVESGGGVVQPGRSLRLSCAASGFTFSNYAMHWVRQAPGKGLEWVALISFDGSYKYYADSVKGRFTISRDNSKNTLYLQMNSLRAEDTAVYYCVKDAGYSSSWFFDYWGQGTLVTVSS
VL: DIQMTQSPSSVSASVGDRVTITCRASQDISSWLAWYQQKPGKAPKLLIYAASSLQSGVPSRFSGSGSGTDFTLTISSLQPEDFGNYYCQQANSFPWTFGQGTKVEIKR
notes: Fully human IgG1-LALA / kappa
For the molecule B1, in test [1], binding was characterised by a dissociation constant (Kd) of 1.5 nM, the koff was found to be 0.00012 s⁻¹ and the kon came out at 80000 M⁻¹ s⁻¹. In test [2], this molecule showed a Kd of 2.8 nM, a koff of 0.00012 s⁻¹ and a kon of 41000 M⁻¹ s⁻¹. Further, the “EC50 (read off the curve)” value in test [3] is ~0.1 µg/mL. The “EC50 (read off the curve)” value in test [4] is ~0.2 µg/mL.

B2: antibody 16154 (antibody, human IgG1, kappa, L234A L235A, V domains shown)
VH: EVQLVESGGGLVQPGGSLRLSCAASGFTFTSYWMSWVRQAPGKGLEWVANIKQDGSEKYYVDSVKGRFTISRDNAKNSLYLQMNSLRAEDTAVYYCARGPVAGPYWYFDLWGRGTLVTVSS
VL: AIQMTQSPSSLSASVGDRVTITCRASQGIRNDLGWYQQKPGKAPKLLIYAASSLQSGVPSRFSGSGSGTDFTLTISSLQPEDFATYYCLQDYHYPLTFGGGTKVEIKR
notes: Fully human IgG1-LALA / kappa
Consider B2, for which, in test [1], the Kd worked out at 4.6 nM, the koff was found to be 0.00051 s⁻¹ and the kon is 110000 M⁻¹ s⁻¹. Further, in test [2], the Kd was found to be 5.7 nM, the koff came to 0.00031 s⁻¹ and the kon was 53000 M⁻¹ s⁻¹. In addition, the “EC50 (read off the curve)” value in test [3] was ~0.008 µg/mL. Also, the “EC50 (read off the curve)” value in test [4] was ~0.008 µg/mL.

B3: antibody 15888 (antibody, human IgG1, kappa, L234A L235A, V domains shown)
VH: QVQLQQSGPGLVKPSQTLSLTCAISGDSVSSNSATWNWIRQSPSRGLEWLGRTYYRSKWYNDYAVSVKSRITINPDTSKNQFSLQLNSVTPEDTAVYYCARGGHSIAVAGPFDYWGQGTLVTVSS
VL: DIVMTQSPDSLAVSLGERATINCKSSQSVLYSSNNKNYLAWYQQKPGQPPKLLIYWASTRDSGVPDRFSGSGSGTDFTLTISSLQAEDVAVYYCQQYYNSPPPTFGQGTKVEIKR
notes: Fully human IgG1-LALA / kappa
As to B3, in test [1], the Kd was 0.44 nM, the koff turned out to be 0.00014 s⁻¹ and the kon was found to be 330000 M⁻¹ s⁻¹. Moreover, in test [2], the dissociation constant Kd came to 0.75 nM, the koff came out at 0.00014 s⁻¹ and the kon was 190000 M⁻¹ s⁻¹. Also, the “EC50 (read off the curve)” value in test [4] was ~0.02 µg/mL.

B4: antibody 17303 (antibody, human IgG1, kappa, L234A L235A, V domains shown)
VH: EVQLVESGGGLVQPGRSLRLSCAASGFTFDDHAMHWVRQAPGKGLEWVSGISWNSGSIGYAESVKGRFTISRDNAKNSLYLQMNSLRAEDTALYYCAKDRRGPFDYWGQGTLVTVSS
VL: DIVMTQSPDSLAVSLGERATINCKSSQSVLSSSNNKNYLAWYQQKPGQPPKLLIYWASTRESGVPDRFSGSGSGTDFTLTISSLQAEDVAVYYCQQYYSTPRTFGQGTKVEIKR
notes: Fully human IgG1-LALA / kappa
In test [1], B4 yielded a Kd of 9.8 nM, a koff of 0.0014 s⁻¹ and a kon of 150000 M⁻¹ s⁻¹. For the same molecule, in test [2], the Kd came out at 7.8 nM, the koff amounted to 0.00038 s⁻¹ and the kon was 49000 M⁻¹ s⁻¹. For the same molecule, the “EC50 (read off the curve)” value in test [4] is ~0.02 µg/mL.

B5: antibody 15948 (antibody, human IgG1, kappa, L234A L235A, V domains shown)
VH: QVQLVESGGGVVQPGRSLRLSCAASGFTFSIYGMHWVRQAPGKGLEWVAVISYDGSNKYYADSVKGRFTISRDNSKNTLYLQMNSLRAEDTAVYYCAKDPDYYGSGSYYPDWGQGTLVTVSS
VL: DIQLTQSPSFLSASVGDRVTITCRASQGISSYLAWYQQKPGKAPKLLIYAASTLQSGVPSRFSGSGSGTEFTLTISSLQPEDFATYYCQQVKSYPLTFGGGTKVEIKR
notes: Fully human IgG1-LALA / kappa
For the molecule B5, in test [1], the Kd worked out at 57 nM, the koff came to 0.0021 s⁻¹ and the kon stood at 37000 M⁻¹ s⁻¹. In addition, in test [2], the dissociation constant (Kd) was 3.1 nM, the koff amounted to 0.00031 s⁻¹ and the kon is 99000 M⁻¹ s⁻¹. In test [4], the “EC50 (read off the curve)” value is ~0.4 µg/mL.

B6: antibody 16040 (antibody, human IgG1, kappa, L234A L235A, V domains shown)
VH: QVQLVESGGGVVQPGRSLRLSCAASGFTFSIYGMHWVRQAPGKGLEWVAVISYDGSNKYYADSVKGRFTISRDNSKNTLYLQMNSLRAEDTAVYYCAAGNWFDPWGQGTLVTVSS
VL: DIQLTQSPSFLSASVGDRVTITCRASQGISSYLAWYQQKPGKAPKLLIYAASTLQSGVPSRFSGSGSGTEFTLTISSLQPEDFATYYCQQLNRYPLTFGGGTKVEIKR
notes: Fully human IgG1-LALA / kappa
In test [1], B6 had a Kd of 16 nM, a koff of 0.0013 s⁻¹ and a kon of 81000 M⁻¹ s⁻¹. In test [2], binding was put at a Kd of 7 nM, the koff was determined as 0.00036 s⁻¹ and the kon was 52000 M⁻¹ s⁻¹.
